Patent publication US12589171B2, “177-Lu labeled peptide for site-specific uPAR-targeting” (priority 2012, dated 2026)

Experiment: in vivo
Design: species or system NMRI nude mice
Details: female, NMRI nude, mouse, iv, total radioactivity
Protocol: For PET/CT imaging, one mouse was injected with ^64Cu-DOTA-AE105 and scanned 1 h post injection. Gamma planar imaging was performed on another mouse 1 h post injection of ^177Lu-DOTA-AE105. Quantitative data were based on manual drawings of region-of-interest analyses on PET/CT data and from analyzed whole tumor tissue using a gamma-counter for planar data. A. Representative images after PET/CT (left) and Gamma planar (right) imaging of HT-29 tumor xenograft. White arrows indicate tumor xenograft. B. […] Quantitative tumor uptake data is presented as % ID/g±SEM based on three animals. Ten min static PET scans were acquired with a microPET Focus 120 scanner (Siemens Medical Solutions, Malvern, PA) 1 hr post i.v. injection of approximately 10 MBq of either ^64Cu-DOTA-AE105 or ^18F-FLT during sevoflurane anesthesia. All PET/CT settings were used as described in detail previously. All results were analyzed using Inveon software (Siemens Medical Solutions) and PET data was expressed as percent of injected dose per gram tissue (% ID/g), with CT-data expressed as cubic millimeters (mm^3). […] This is illustrated in FIG. 2A (left), where a colorectal HT-29 tumor bearing mouse was PET/CT scanned using ^64Cu-DOTA-AE105. […] In FIG. 2A (right) is a representative planar image of a HT-29 tumor bearing mice after injection of ^177Lu-DOTA-AE105.

SMILES: CC(C)C[C@H](NC(=O)[C@H](Cc1ccc(O)cc1)NC(=O)[C@@H](CCCNC(=N)N)NC(=O)[C@@H](CO)NC(=O)[C@H](Cc1ccccc1)NC(=O)[C@H](CC1CCCCC1)NC(=O)[C@H](CC(=O)O)NC(=O)CN1CCN(CC(=O)O)CCN(CC(=O)O)CCN(CC(=O)O)CC1)C(=O)N[C@@H](Cc1c[nH]c2ccccc12)C(=O)N[C@@H](CO)C(N)=O [^64Cu-DOTA-AE105, metal not drawn]
- tissue uptake at 1 h: 0.86 ± 0.03 %ID/g
